± gives the uncertainty stated by the source.

A short description of this data set: amyloid nucleation score (Sup35N fusion, yeast selection) (log enrichment); library NNK2; higher = more nucleation; inactive = no reads after selection. The procedure, abridged: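 Plasmid inserts were Illumina-sequenced at input and output from psi-negative yeast expressing Sup35N fused to peptides of 20 random codons. The yeast were induced with 100 μM copper sulfate for 24 hours and grown 7 days at 30°C on medium lacking adenine and uracil, and sequences with under 100 input reads were excluded. Nucleation score is the DiMSum log enrichment of output over input reads, centred on the mode score of non-aggregating sequences.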
Consider TPIVGMLY, for which the amyloid nucleation score was -0.477 ± 0.55.
For WWRRRCR the value was 0.224 ± 0.3; for EHLGIIAIRCAQIHKFLPEL, 0.539 ± 0.36; for VSISCSVWIMGRVYLIRYSG, -1.36 ± 0.78.
In the case of SVSYTNVLYHIKVDEFFNEC it was 1.3 ± 0.25.
In the case of TRRARSDSDLMCRDRVSVDN it was -0.249 ± 0.35; in that of FVFVAARAFCRSVSNVSD, -0.399 ± 0.55; in that of ITILCLNVSMVYEVGQ, 7.778 ± 0.042.
ILQFKVGKGQGNAQLFKPII: the amyloid nucleation score is -0.935 ± 0.55.
For FNLMLI the value was “inactive”; for YCYLMMEAWHMEANWYHCFV, -0.209 ± 0.2.
In the case of SGWSNFVLCILHTTTGMKRH it was 3.95 ± 0.071.
Consider LVRHFIHGSTA, for which the amyloid nucleation score was -1.23 ± 0.49.
In the case of SLWVMKCDKDTKYADRSFTL it was -0.632 ± 1.1; in that of HHRMSYHY, 1.72 ± 0.28; in that of IPLQSTMRFRCPVMDLGNFI, -0.849 ± 1.
Consider LFKEDRDRCSC, for which the amyloid nucleation score was 0.99 ± 0.49.
In turn, SHLCQLLDDAGLTEQNNSSG came in with an amyloid nucleation score of 0.234 ± 0.57.
LVNFSSLIV returned an amyloid nucleation score of -2.07 ± 1.1.
With VCVLGIGT, the amyloid nucleation score entry is “inactive”.
VWIFSSSIKTTLYKHLLSNT gave an amyloid nucleation score of -0.539 ± 0.74.
Turning to WGQNNAEAFNYALMWVFRVW, the amyloid nucleation score is 2.49 ± 0.11.
For LVKKWVWLLCCYRISWGRLR the value was -0.346 ± 0.28; for LGHFSFD, “inactive”; for FEWWTSMGGGECVQRNNSVA, 0.697 ± 0.41.
In the case of VICFAMSMILR it was 3.38 ± 0.13; in that of HTWDLYYAIYSA, -1.19 ± 0.36; in that of GVHYEKEGVRTSVFSDLSWE, -0.021 ± 0.3.
For VWWSEVTAVSNCQRVSYARP the value was 2.94 ± 0.075; for LFASALFRMVSAFLEVAIL, 0.722 ± 0.43.
GQGDYMRFSDNAGGPYSKLE: the amyloid nucleation score was 1.73 ± 0.24.
Turning to QKRRDFVVHCIRELWFYEHD, the amyloid nucleation score entry was “inactive”.
IQKLRVRHDMISYTSEMSVN had an amyloid nucleation score of -0.218 ± 0.55.
For HAGVMLSFNIVVPNFTYSKE the value was 8.448 ± 0.051.
In the case of CNRGLKFAVGFKLLTIPTSL it was “inactive”; in that of AAKTNCDC, -0.01 ± 1.
In the case of RRTICCCSIVCGRGNGSLDL it was 6.257 ± 0.056; in that of VDLTIVHRGGGAGMGSNRVK, 0.176 ± 0.24; in that of DSSYVSVHRFCNFGYLIFCF, 7.734 ± 0.064.
With FFISALANR, the amyloid nucleation score result is “inactive”.
For YDSFMVGVCYAG the value was -1.42 ± 1.1; for ACRELVWLG, 0.354 ± 0.65.
In the case of KINMLCFSWGSCVGGCRKVC it was 7.063 ± 0.055; in that of VLDSAYCAFVYFFIVVIWWF, -0.595 ± 0.61.
For the substance EYTHRSERFIMGNVISKVRM, the amyloid nucleation score amounted to 0.255 ± 0.49.
For TDGELDSPQ the value was 0.165 ± 0.37; for KSSDGPKAQV, 1.13 ± 0.16.
For MFGGLGTDSLA the value was -0.46 ± 1.
In the case of SAGGVSPFP it was -0.659 ± 0.63; in that of IFKCRRVI, 4.614 ± 0.041.
For LLEFTLLTISQRPYTWNTVE, the amyloid nucleation score came to 0.862 ± 0.17.
Regarding EWNAKLWSLPSGATGCKSQS, the amyloid nucleation score worked out at 1.16 ± 0.2.
For TGVCPR the value was -0.674 ± 0.5; for VSKMGYRDALVAREGLCGVV, 0.072 ± 0.38; for RSFGYIMLWVMIFNRIKLIF, “inactive”.
In the case of FSSILWRFSRLVVRSLVPKS it was 0.175 ± 0.27; in that of NLPIGLCSAGRFLGNNL, 0.123 ± 1; in that of SPDATGYTNKVLGSRLIRRR, 1.44 ± 0.38.
For YVWSAKHSNIDCRVES the value was 0.877 ± 0.36; for CEVLKHSCTDSEMHAKADGV, -0.307 ± 0.23.
Regarding EDSPKFKGGPGIYHSVVLVG, the amyloid nucleation score is 0.394 ± 0.27.
For PLNSMNVAESESYGLSQMS the value was 1.28 ± 0.37; for YICRNLISESLCLYYTGARG, 5.03 ± 0.065; for LFMACLIGIFFHVETTRCRW, 2.5 ± 0.13.
In the case of ASELLGYMCDIVASLGVVRY it was 0.747 ± 0.43; in that of VDPPLGKWGAEGCI, 0.484 ± 0.51.
For the substance CYVDFSYLVNKFYWGPRWMP, the amyloid nucleation score was -0.049 ± 0.5.
For MTSENNWPNYTGLAPTPPAA the value was 1.32 ± 0.18; for FMYRDLYRFMYCVVCAQFFH, 4.95 ± 0.05.
For TDALANSNRPSKFQVH the value was -0.059 ± 0.37.
For RMWCLGLDPLYTENKGSSDA the value was -0.427 ± 1.1; for TWQIFFGIFGFSFY, 4.18 ± 0.062.
HNYGNPWE: the amyloid nucleation score is 3 ± 0.12.
The substance SLNKNINRYFGFWYPDSPLL registered an amyloid nucleation score of -1.22 ± 0.78.
In the case of YSMICGLHCSVLFRGNSEGT it was 4.782 ± 0.039; in that of LNRFGSSNSLITKFC, -1.58 ± 1; in that of LPHESFNQHGKLFMAD, 0.054 ± 0.46.
For GLIVKLMGIFRNRSETSESQ the value was 4.47 ± 0.083; for YNKLRPGATCHLETWS, -0.614 ± 0.79.
In the case of FCLFQRDKTHSVWMGLKKFQ it was -1.06 ± 0.78; in that of CVCDLCVPWVLNFGR, 8.914 ± 0.051.
In the case of CFVVRE, the amyloid nucleation score was determined as 0.404 ± 0.46.
For MSYILFCLPSNARCFLP, the amyloid nucleation score entry was “inactive”.
For NLTNRYFNFSRTEPCNKYLT the value was 0.895 ± 0.81; for KSETAVRVNGYGAKIQE, -0.224 ± 0.79; for GTLGFDLKR, -0.507 ± 0.76.
On to YVRNFPLGLSV, for which the amyloid nucleation score was -1.63 ± 1.1.
In the case of WTWVLMNIL it was -1.76 ± 0.64; in that of HSWNV, “inactive”; in that of IMFICTGRSLTHTD, -0.642 ± 1.1.
Consider RRSSD, for which the amyloid nucleation score came to 1.2 ± 0.3.
In the case of GRNLFSFVFQMLV it was 0.043 ± 0.29.
In the case of RRAILWPNGAN it was 0.097 ± 0.37.
For CFANRNRFFMSLSEHHTFDG the value was -0.798 ± 1.1; for MGFLLRLCTYRCVVVIWGSI, -1.08 ± 0.43; for LGCNDSWEWDFVTPNGTFPF, -0.445 ± 0.48.
In the case of VGGYLAICNGLSSLCLDPG, the amyloid nucleation score was -0.59 ± 1.1.
For LNIHLFSVTGLCDEC the value was -0.344 ± 0.76; for VAMVVRGTLYPALCPTYWVS, 2.25 ± 0.11; for RKLRVNWERCFHVSEAGLKV, 0.057 ± 1.1.
In the case of RLTPYTFTWSVFEMFNLRMP it was -1.09 ± 0.49; in that of FNIVQHVASCGWLTYTWSAA, -0.018 ± 1.1.
For MTVNSLFHRLNKLRGILPDR the value was -0.902 ± 0.48; for LFIEGNVSWGYACLHIRSVG, 0.039 ± 0.79.
Consider KTRYALPVDQCYMKNRNMLV, for which the amyloid nucleation score was 0.295 ± 0.51.
For VRCIE the value was -0.282 ± 0.28; for VSWAVGQGWTVRSSPRVCGE, 0.267 ± 0.42.
For FMGTLNRELYTGRYGVG the value was -0.243 ± 1; for DGFSFIVRSFVWRNNHADAG, 3.71 ± 0.12; for AVLLNA, 0.181 ± 0.34.
QRRQVDSVM came in with an amyloid nucleation score of 1.27 ± 0.27.
In turn, CFGRGLCVSIGVVRCTGGPC registered an amyloid nucleation score of 0.119 ± 0.62.
On to NRCYHFRDCQVYLTQDASWA, for which the amyloid nucleation score was found to be 8.515 ± 0.048.
For TNGYSVRLYKGSCVILIGL the value was 5.12 ± 0.092; for GVAELNLN, “inactive”; for FQYYDKYLYWFFVNN, -2.12 ± 0.73.
For DVFWYDATTRYGGRCRGQIS the value was 1.11 ± 0.31; for FLILAHLGIKNYNWV, 3.885 ± 0.037; for IIILFQVQCHVVRLSRVHKC, -0.658 ± 0.49.
For IFSWTLEV the value was 0.249 ± 0.64; for ASGQWGPD, -0.67 ± 0.76.
Regarding DSAGASFNSCCGAE, the amyloid nucleation score amounted to 0.122 ± 1.1.
In the case of CRNLPGVCEMPSGVANYRVL it was -0.547 ± 1.1; in that of HSSEIL, -0.006 ± 0.65.
In turn, SLYFGIRYENRERCLFDLHV registered an amyloid nucleation score of 2.42 ± 0.17.
For LTSNPVPSNLT the value was 3.35 ± 0.076.
For FLNYVGDGIIEI the value was -0.835 ± 0.48.
LRQYKRALAVGLDWFPSVLR returned an amyloid nucleation score of 0.113 ± 0.8.
For KPWFVVDRKNFRSNSAPWLG the value was 0.073 ± 0.29.
Substance LADTVIMGLGSTLFVYVYLI showed an amyloid nucleation score of 3.88 ± 0.077.
In the case of IFLDHYS it was -0.026 ± 0.35; in that of CWFPWSSYLRNMFELPKTWL, 0.529 ± 0.55.
RPDNSDV had an amyloid nucleation score of -1.61 ± 0.54.
In the case of SVTVHFENVVDIRYVCVTMG it was 0.341 ± 0.65; in that of WSEISWTIQGCFVRHDALLG, 0.087 ± 0.56; in that of CMNGPFTLTRPTARGRIRC, 0.32 ± 0.51.
In the case of YLLNLEF it was “inactive”; in that of VLVSVVRCDVVAAVRCVQM, 3.56 ± 0.11.
For IRLVMWCYHQNDCVVFSSLH the value was 1.94 ± 0.13; for RPWLNRAFDVISYYAIMACR, 0.091 ± 0.3.
As to YVSMLTNLTDLTSM, the amyloid nucleation score was 0.572 ± 0.33.

(Values after the supplement of paper PMC12042874.)
